Measurements: PMC6411926, “Engagement of DNA and H3K27me3 by the CBX8 chromodomain drives chromatin association” (Nucleic Acids Research, 2018)
Blank lines part the entries; values can stand above or below the molecule they belong to. Ends that are not written are not given here. trimethyl = trimethyl-lysine

Key:
[1] = molecular target: histone H3K27me3 peptide (Homo sapiens) (UniProt P68431); details: cited from earlier work
[2] = molecular target: T1, CBX8 chromodomain (residues 8-61) (UniProt Q9HC52 8-61); assay: NMR titration; 1H-15N HSQC; histone peptide added to 15N-CD pre-bound to an 11 bp DNA (CD:DNA 1:1); details: both partners purified
T1 construct: CBX8 chromodomain, residues 8-61; Uniformly 15N-labelled for the NMR titrations; The methods name two chromodomain constructs (Addgene 62514 and GST-CBX8 8-61 in pGSTag); the purification that is described is that of the GST fusion cleaved with TEV; also called CD; CBX8 CD; source: E. coli BL21 (DE3), purified (glutathione agarose, TEV cleavage, cation exchange, Superdex 75)
T1 sequence (looked up): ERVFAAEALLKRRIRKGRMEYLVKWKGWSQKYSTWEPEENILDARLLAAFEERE

[3] = molecular target: T1, CBX8 chromodomain (residues 8-61); assay: NMR titration; 1H-15N HSQC of 0.05-0.10 mM 15N-CBX8 CD with increasing molar ratios of unlabelled histone peptide; 25 °C; 100 mM NaCl, 40 mM phosphate pH 6.8; CSPs fit to a single-site model with ligand depletion, global Kd as the average over perturbed resonances; details: both partners purified
CBX8 chromodomain (CD) = molecular target: T2, CBX8 chromodomain (CD) (UniProt Q9HC52 8-61); assay: NMR titration (1H-15N HSQC); authors' estimate (likely); saturation at ~1:1, curved CSPs; EMSA: 25 mM phosphate pH 6.8, 25 mM NaCl, 1 mM EDTA, 1 mM DTT, 15 min on ice, 6% gel in 0.4x TBE; NMR: 40 mM phosphate pH 6.8, 100 mM NaCl, 25 C; details: protein: recombinant; tags: GST removed by TEV; 15N-labelled for NMR; blunt
T2 sequence: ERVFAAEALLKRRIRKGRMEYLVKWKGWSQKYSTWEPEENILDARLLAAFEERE

Molecule: CBX8 chromodomain (from UniProt Q9HC52)
- Kd [1]: > 500 µM

- Kd [2]: 200 µM
- Kd [3]: 700 µM
Molecule: KAARK(trimethyl)SAPATGG [H3K27me3 (23-34) histone peptide]

B1: 11 bp DNA (dsDNA)
DNA 1: GCGTTTAAGCG
DNA 2: CGCTTAAACGC
- Kd (CBX8 chromodomain (CD)): < 10 µM
